The record followed here is patent US20230088269A1.

The koff is the first-order rate constant of dissociation.

The experiment addresses recombinant human IL-22R (R&D Systems / Biotechne 2770-LR) (human) (UniProt Q8N6P7). Nature of the experiment: SPR (Biacore), purified Fab.

Sequence of recombinant human IL-22R (R&D Systems / Biotechne 2770-LR) (human) (Q8N6P7 16-228 limits assumed): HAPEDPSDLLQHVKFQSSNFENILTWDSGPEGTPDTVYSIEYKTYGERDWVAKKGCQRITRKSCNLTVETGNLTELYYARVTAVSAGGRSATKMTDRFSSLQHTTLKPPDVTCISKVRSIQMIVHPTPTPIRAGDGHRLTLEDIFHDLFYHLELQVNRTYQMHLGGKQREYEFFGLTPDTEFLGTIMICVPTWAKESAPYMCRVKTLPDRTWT

B1: 170B2 Fab (Fab, from another filing, V domains shown)
VH: EVQLVESGGGLVQPGGSLRLSCAASGFTFSSSWMYWVRQAPGKGLEFVSVINTRSGITHYVESVKGRFTISTDNAKNTLFLQMNSLKSEDTAVYYCATRIQGLIDYWGQGTQVTVSS
VL: DIVMTQSPSSLSVSLGDRVTITCQASQSIGSVNALAWYQQKPGQSLKLLIHGASRLQTGVPSRFSGSGSGTSFTLAISGVEAEDLATYYCLQDYAWPLTFGQGTKVELK
Regarding B1, the off-rate (koff) stood at 0.00035 s⁻¹.
